From US8859496B2, “Pharmaceutical composition using connective-tissue growth factor” (Postech Academy-Industry Foundation, priority 2010, dated 2014)
No end group written: not given here.

Assays:
[1] = test system: CAM (chorioallantoic membrane); assay: In vivo CAM (chorioallantoic membrane) angiogenesis analysis
Protocol: In vivo CAM analysis was conducted according to a previously known method (Lee, M.-S. et al. Angiogenic Activity of Pyruvic Acid in in Vivo and in Vitro Angiogenesis Models. Cancer Res 61, 3290-3293, 2001).
Fertilized eggs were cultured in an egg breeder set to fixed moisture at 37° C. 3 days after the culture, to take off expressed CAM from the shell, about 2 ml of egg albumin was taken out with 18-gague subcutaneous needle. After additionally culturing for 6 days, thermanox coverslips (Nunc) containing the sample was dried in the air, and applied to the CAM surface to test the activity of angiogenesis by linker polypeptide or rhCTGF. After 3 days, 1-2 ml of 10% (w/v) Intralipose was injected into chorioallantois, and observed with microscope.
And, it was confirmed by the <Experiment method 10> that in case HUVECs are treated with FPRL1 antagonist (10 ug/CAM) in vivo, angiogenesis activity of VEGF-A (25 ng/CAM) is inhibited, and the results are shown in FIG. 28.

[2] = target: T1, FPRL1 (Homo sapiens, UniProt P25090); assay: ERK phosphorylation in FPRL1/RBL cells (immunoblot); type: cell-based; conditions: FPRL1/RBL cells
T1 construct: expressed in transfected cells; host or cells: rat basophil leukemia RBL-2H3 cells, kept under G418
T1 sequence (P25090 1-351): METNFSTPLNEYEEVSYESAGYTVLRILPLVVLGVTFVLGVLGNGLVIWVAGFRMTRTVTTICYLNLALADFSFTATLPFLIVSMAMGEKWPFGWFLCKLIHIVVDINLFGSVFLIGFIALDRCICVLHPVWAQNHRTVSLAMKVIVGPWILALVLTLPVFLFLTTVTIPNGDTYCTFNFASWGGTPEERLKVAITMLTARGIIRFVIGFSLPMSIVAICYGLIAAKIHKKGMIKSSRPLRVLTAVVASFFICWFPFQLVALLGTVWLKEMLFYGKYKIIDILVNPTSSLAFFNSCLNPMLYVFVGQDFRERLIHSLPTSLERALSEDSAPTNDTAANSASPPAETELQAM
Protocol: Vector/RBL cells, FPR/RBL cells, FPRL1/RBL cells, and HUVECs were cultured to confluence, and serum-starved. The stimulated cells (1×10^5 cells) were washed with PBS twice, dissolved in 1 ml of sample buffer (50 mM Tris-HCl, 100 mM NaCl, 0.1% SDS, 1% Nonidet P-40, 50 mM NaF, 1 mM Na3VO4, 1 μg/ml aprotinin, 1 μg/ml pepstatin, and 1 μg/ml leupeptin), heated at 95° C. for 30 seconds, separated with SDS-PAGE, and then, transferred to a nitrocellulose film. Immunoblot was conducted using anti-phospho-ERK (extracellular signal regulated kinase)1/2 (Thr^202/Tyr^204)(Cell Signaling Technology, Beverly, Mass., USA), anti-ERK1/2 (Cell Signaling Technology, Beverly, Mass., USA), anti-CTGF (Abcam, Cambridge, Mass., USA), anti-Actin (Sigma, St. Louis, Mo., USA), or anti-Flag (Sigma, St. Louis, Mo., USA) antibody, and then, the film was visualized with a chemiluminescence substrate (Amersham Pharmacia).
To confirm this, the inventors obtained conditioned medium (CM) in HUVEC treated with VEGF-A, and FPRL1-overexpressing cells FPRL1/RBL were treated therewith in the concentration of 10 ng/ml or 50 ng/ml for 8 hours. At this time, as positive control, FPRL1 agonistic peptide WKYMVm (Trp-Lys-Tyr-Met-Val-D-Met, SEQ ID NO. 1) was treated with 10 nM.
After the treatment, immunoblot was conducted on cell lysate that was transferred to a nitrocellulose film with anti-phospho ERK (extracellular signal regulated kinase)1/2 and anti-ERK1/2 antibody (Cell Signaling Technology, Beverly, Mass., USA), and then, the film was visualized with a chemiluminescence substrate (Amersham Pharmacia), and the results are shown in FIG. 1.
Meanwhile, the above described vector/RBL, FPR/RBL, or FPRL1/RBL cells were respectively treated with the above conditioned medium or VEGF-A at the concentration of 10 ng/ml for 8 hours, and positive control was treated with 10 nM of agonistic peptide WKYMVm (SEQ ID NO. 1).
As described in the <Experiment method 5>, FPRL1/RBL cells were treated with 40 ug of the HPLC fraction of the conditioned medium for 5 minutes, and the result confirming whether ERK phosphorylation occurred as described in the <Experiment result 1> was shown in FIG. 3.
To confirm whether the purified proteins induce ERK phosphorylation in FPRL1/RBL cells, immunoblot was conducted as described in the <Experiment result 1>, and the results are shown in FIG. 9.
ERK phosphorylation induction of CTGF linker polypeptide was compared to recombinant human CTGF (rhCTGF). Specifically, FPRL1/RBL cells were treated with CTGF linker polypeptide and rhCTGF for 5 minutes at various concentrations, ERK phosphorylation was measured, and the results are shown in FIG. 11. […]

[3] = target: T1, FPRL1; assay: Flow cytometry binding of biotinylated linker polypeptide to FPRL1/RBL, vector/RBL or FPR/RBL cells
Protocol: To evaluate the degree of binding of linker polypeptide corresponding to the link region of human CTGF, linker polypeptide was labeled using a EZ-Link Micro Sulfo-NHS-LC-Biotinylation kit (Pierce Chemical Co., Rockford, Ill., USA) according to the manufacturer's instruction. The linker polypeptide was cultured at room temperature for 1 hour in PBS with 9 mM sulfo-NHS-LC-biotin (Pierce Chemical Co., Rockford, Ill., USA). During biotinylation, vector/RBL cells, FPR/RBL cells, FPRL1/RBL cells, or HUVECs were treated with trypsin, and collected, and then, treated with rabbit serum at room temperature for 30 minutes. After culturing the biotinylated linker polypeptide in the ice for 30 minutes, the cells were shortly washed with ice-cold PBS, cultured with antihuman fluoroscein-5-isothiocyanate (FITC)-conjugated streptavidin (Pierce Chemical Co.), and then, washed with ice-cold PBS, and fixed with 1% formaldehyde solution. And then, they were analyzed using FACS Caliber system (BD Biosciences, San Jose, Calif.) with CellQuest and WinMDI 2.9 software according to previously known method (He, R., Sang, H. & Ye, R. D. Serum amyloid A induces IL-8 secretion through a G protein-coupled receptor, FPRL1/LXA4R. Blood 101, 1572-1581, 2003). […]

| binding of biotinylated linker polypeptide to cells ([3]; 10 nM, FPRL1/RBL, vector/RBL or FPR/RBL cells) | effect of antagonist on ERK phosphorylation induced by CTGF linker polypeptide or rhCTGF ([2]; 10 nM CTGF linker polypeptide or rhCTGF, WRW4 10 uM) | Substance | angiogenesis in vivo (CAM) ([1]; sample on coverslip on CAM, 3 days) | ERK phosphorylation compared to rhCTGF ([2]; 10 nM) | ERK phosphorylation compared to rhCTGF ([2]; various concentrations, 5 minutes) | effect of antagonist on CAM angiogenesis induced by VEGF-A ([1]; FPRL1 antagonist 10 ug/CAM, VEGF-A 25 ng/CAM) | effect of antagonist on CAM blood vessel formation induced by CTGF linker polypeptide ([1]; WRW4 10 uM) | effect of antagonist on linker polypeptide binding ([3]; WRW4 10 uM, 30 minutes) |
| --- | --- | --- | --- | --- | --- | --- | --- | --- |
| binds only to FPRL1/RBL cells | – | EWVCDEPKDQTVVGPALAAYRLEDTFGPDPTMIRANCLV (EWVCDEPKDQTVVGPALAAYRLEDTFGPDPTMIRANCLV-NH2; cysteine pairing not given here) [CTGF linker polypeptide] | very strongly induces angiogenesis also in vivo in a concentration-dependent manner | induces ERK phosphorylation to a similar level to rhCTGF | induces ERK phosphorylation to a similar level to rhCTGF | – | – | – |
| – | ERK phosphorylation is inhibited | WRWWWW (FPRL1 antagonist) [WRW4] | – | – | – | strongly inhibits angiogenesis induced by VEGF-A | the blood vessel formation is not induced | the linker polypeptide binding is inhibited in FPR/RBL cells |
